Measurements from patent EP1407030B1.

Target: plasminogen
Experiment: cell-based or functional assay

With “phage-displayed recombinant K2S (K2S-gp3 fusion protein on VCSM13 filamentous phage) (from UniProt P00750 209-562)” the fibrinogen-dependent enzymatic activity (amidolytic assay with plasminogen and S-2251) was less than 0.25 IU/ml.
